Values of other authors in paper PMC10552185.

Biological target: RegA (Dictyostelium discoideum) (UniProt Q23917)
Sequence (Q23917 whole entry): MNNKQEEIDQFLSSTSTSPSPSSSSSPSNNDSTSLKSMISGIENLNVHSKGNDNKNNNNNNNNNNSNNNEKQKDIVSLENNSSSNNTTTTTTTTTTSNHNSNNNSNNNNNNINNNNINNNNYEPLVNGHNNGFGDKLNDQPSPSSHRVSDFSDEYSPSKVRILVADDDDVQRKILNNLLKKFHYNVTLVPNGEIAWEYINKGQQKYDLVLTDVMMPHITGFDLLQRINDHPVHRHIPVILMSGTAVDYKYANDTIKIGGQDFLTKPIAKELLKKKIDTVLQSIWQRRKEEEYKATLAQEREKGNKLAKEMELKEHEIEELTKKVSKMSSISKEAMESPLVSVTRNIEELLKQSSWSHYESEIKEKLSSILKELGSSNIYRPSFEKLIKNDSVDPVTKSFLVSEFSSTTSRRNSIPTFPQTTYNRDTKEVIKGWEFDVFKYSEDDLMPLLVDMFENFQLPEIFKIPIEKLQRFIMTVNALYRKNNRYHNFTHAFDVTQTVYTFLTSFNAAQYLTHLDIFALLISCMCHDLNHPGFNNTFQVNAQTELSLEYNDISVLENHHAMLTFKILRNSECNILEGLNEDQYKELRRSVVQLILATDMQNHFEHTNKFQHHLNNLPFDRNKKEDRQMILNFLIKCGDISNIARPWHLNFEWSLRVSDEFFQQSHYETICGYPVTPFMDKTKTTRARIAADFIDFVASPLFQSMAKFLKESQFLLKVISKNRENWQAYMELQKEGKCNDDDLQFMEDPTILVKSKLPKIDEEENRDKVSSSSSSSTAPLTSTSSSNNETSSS

In the case of PKA RIα (from UniProt P10644), the Kd is given as 100 nM.
